One substance from article PMC11257942 can be followed below.

The experiment deals with major core protein A10 of vaccinia virus (gene product of A10) (vaccinia virus (VACV) strain Western Reserve (WR)). Kind of experiment: cryo-EM structure.

Usually stoichiometry N stands for the number of molecules, sites or subunits per partner or assembly.

In turn, “major core protein A10 of vaccinia virus (gene product of A10) (natural protein)” registered a stoichiometry N of 3.
